In patent publication US20160194391A1 (AstraZeneca / MedImmune, published 2016):

Experiments:
[1] = biological target: T1, human IL-6 (human, UniProt P05231 30-212); assay: cell-based or functional assay
[2] = biological target: T2, Primate IL-6 (Macaca mulatta, UniProt P51494); assay: cell-based or functional assay
T2 sequence (cytokine, looked up): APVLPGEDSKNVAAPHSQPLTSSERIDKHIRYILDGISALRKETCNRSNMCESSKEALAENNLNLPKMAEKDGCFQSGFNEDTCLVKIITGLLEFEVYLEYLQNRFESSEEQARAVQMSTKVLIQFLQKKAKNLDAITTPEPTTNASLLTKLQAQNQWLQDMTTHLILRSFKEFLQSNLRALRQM

[3] = biological target: T3, human IL-12 (human, UniProt P29459 23-219; P29460 23-328); assay: ELISA, human IL-12 coated on the plate; 13A8 is the anti IL-6 negative control [Binding to Human IL-12]
T3 construct: Bioassay used Prospec-Tany Cyt-362
T3 sequence (looked up) 1: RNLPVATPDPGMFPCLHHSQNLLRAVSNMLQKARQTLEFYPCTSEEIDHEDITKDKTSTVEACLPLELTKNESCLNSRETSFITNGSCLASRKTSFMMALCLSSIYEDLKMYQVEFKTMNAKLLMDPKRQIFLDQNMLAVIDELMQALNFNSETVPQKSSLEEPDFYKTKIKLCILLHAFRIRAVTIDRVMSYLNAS
T3 sequence (looked up) 2: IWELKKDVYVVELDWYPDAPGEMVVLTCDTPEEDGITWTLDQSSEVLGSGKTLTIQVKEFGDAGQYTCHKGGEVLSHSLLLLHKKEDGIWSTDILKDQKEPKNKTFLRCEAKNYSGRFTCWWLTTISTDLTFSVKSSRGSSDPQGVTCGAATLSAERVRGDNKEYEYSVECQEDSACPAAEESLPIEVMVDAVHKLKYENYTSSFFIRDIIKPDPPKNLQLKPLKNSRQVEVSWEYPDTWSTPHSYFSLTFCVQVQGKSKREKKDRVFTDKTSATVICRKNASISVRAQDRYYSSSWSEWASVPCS

[4] = biological target: T1, human IL-6; assay: SPR (SensiQ Pioneer), mAb captured on protein G, IL-6 as analyte (3×FLAG-IL-6 or IL-6 CYT-213, 1-100 nM), 25 C, 1:1 model
[5] = biological target: T4, monkey IL-12 (macaque) (macaque, UniProt P48091 23-219; P48095 23-328); assay: ELISA, monkey (macaque) IL-12 coated on the plate; 13A8 is the anti IL-6 negative control [Binding to Monkey IL-12]
T4 construct: also called macaque IL-12
T4 sequence (looked up) 1: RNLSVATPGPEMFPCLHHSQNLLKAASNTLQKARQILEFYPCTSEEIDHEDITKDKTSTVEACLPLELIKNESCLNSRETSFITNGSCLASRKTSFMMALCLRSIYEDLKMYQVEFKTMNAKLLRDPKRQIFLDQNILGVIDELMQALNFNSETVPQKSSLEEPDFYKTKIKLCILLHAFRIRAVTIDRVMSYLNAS
T4 sequence (looked up) 2: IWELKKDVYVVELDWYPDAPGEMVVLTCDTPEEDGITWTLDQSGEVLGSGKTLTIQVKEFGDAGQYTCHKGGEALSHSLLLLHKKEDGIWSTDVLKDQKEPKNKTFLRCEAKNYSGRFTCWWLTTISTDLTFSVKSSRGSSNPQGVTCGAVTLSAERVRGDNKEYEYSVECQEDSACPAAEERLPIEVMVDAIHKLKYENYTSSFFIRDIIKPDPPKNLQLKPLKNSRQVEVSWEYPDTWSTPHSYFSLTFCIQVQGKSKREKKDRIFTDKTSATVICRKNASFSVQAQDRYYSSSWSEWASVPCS

[6] = biological target: T5, human IL-12 p40 subunit (human, UniProt P29460 23-328); assay: ELISA, human IL-12 p40 subunit coated on the plate; 13A8 is the anti IL-6 negative control [Binding to human IL-12 p40]
T5 construct: Coated on ELISA plates
T5 sequence (looked up): T3 sequence (looked up) 2

B1: 13A8 chimeric mAb (antibody, V domains shown)
VH: QSVEESGGRLVTPGTPLTLTCTVSGIDLSSYDMSWVRQAPGKGLEWIGYIYTDSSTWYANWAKGRFTISKTSSTTVDLKMTSLTTEDTATYFCAKGSTDYAFDTRLDLWGPGTLVTVSS
VL: NIVMTQTPSPVSGAVGGTVTINCQASQSISNELSWYQQKPGQPPRLLIYRASTLTSGVSSRFKGSGAGTQFTLTISGVECADAATYYCQQGYNSNDVDNVFGGGTKVVVVR
notes: HEK293; also called 13A8 clone
In the case of B1, the “EC50, inhibition of IL-6 induced B9 cell proliferation” value [1] is reported as 0.034 ng/mL, the “IC50 (read off the curve) (B9 proliferation, OD570-600)” value [2] is reported as ~0.4 ng/mL and the binding result [3] is reported as “no binding”. The Kd [4] was 218 pM, the koff [4] was 0.000138 s⁻¹ and the kon [4] was 633000 M⁻¹ s⁻¹. B1: no binding [5]; no binding [6].
